In article PMC5897841, “Development of a multipurpose scaffold for the display of peptide loops” (Protein Engineering, Design and Selection, 2017):
One block for each substance: values may come before it.

Columns and labels:
[1] = molecular target: double His-tagged RAD-TPX2_((7–43)) Y8A (Pyrococcus furiosus | human) (UniProt O74036); assay: BLI; Octet RED96, Anti-Penta-HIS biosensors loaded with double His-tagged RAD-TPX2 proteins (1 μM), untagged Aurora A wild type 0-500 or 5000 nM as analyte; 50 mM HEPES pH 7.4, 500 mM NaCl, 100 mM Mg(CH3COO)2, 0.5 mM ATP, 0.5 mM TCEP, 0.05% P20; 1:1 model
[2] = molecular target: double His-tagged RAD-TPX2_((7–43)) Y10A (Pyrococcus furiosus | human) (UniProt O74036); assay: as above
[3] = molecular target: double His-tagged RAD-TPX2_((7–43)) F16A (Pyrococcus furiosus | human) (UniProt O74036); assay: as above
[4] = molecular target: double His-tagged RAD-TPX2_((7–43)), wild-type TPX2 sequence (Pyrococcus furiosus | human) (UniProt O74036); assay: as above
[5] = molecular target: double His-tagged RAD-TPX2_((7–43)) D11A (Pyrococcus furiosus | human) (UniProt O74036); assay: as above
[6] = molecular target: double His-tagged RAD-TPX2_((7–43)) F35A (Pyrococcus furiosus | human) (UniProt O74036); assay: as above
[7] = molecular target: double His-tagged RAD-TPX2_((7–43)) F19A (Pyrococcus furiosus | human) (UniProt O74036); assay: as above
[8] = molecular target: double His-tagged RAD-TPX2_((7–43)) W34A (Pyrococcus furiosus | human) (UniProt O74036); assay: as above
[9] = molecular target: Aurora A_(D274N) kinase domain (human) (UniProt O14965); assay: ITC; itc200, 25°C, 10 mM HEPES pH 7.4, 500 mM NaCl, 0.05% P20; 50 μM titrant into 5 μM Aurora A D274N, 100 μM CK2β peptide or RAD-CK2β into 10 μM CK2α; single-site model
[10] = molecular target: synthetic linear CK2β_((186–200)) peptide with C-terminal Gly-Cys (human) (UniProt P67870); assay: SPR; Biacore T100, CM5, peptides or cRAD display proteins immobilised through their cysteine (240-400 RU), kinase as analyte 2.5 nM-2.5 μM, 25°C, 10 mM HEPES pH 7.4, 500 mM NaCl, 0.05% P20; 1:1 steady-state affinity model; CK2α data analysed at 200 s post-injection
[11] = molecular target: Alexa Fluor 488-labeled cRAD-CK2β_((186–200)) (Pyrococcus furiosus | human) (UniProt O74036); assay: fluorescence polarisation; fluorescence anisotropy, direct titration of kinase (CK2α 2 nM-2 μM; Aurora A D274N 2 nM-1.5 μM) into labelled peptide or display protein; 10 mM HEPES pH 7.4, 500 mM NaCl, 1 mM DTT, 0.05% P20; room temperature; 1:1 model
[12] = molecular target: Fluorescein-CK2β_((186–200)) peptide (human) (UniProt P67870); assay: as above
[13] = molecular target: Aurora A wild-type kinase domain (untagged) (human); assay: fluorescence polarisation; fluorescence anisotropy competition: 10 nM Alexa Fluor 488-TPX2 peptide and 50 nM Aurora A wild type, RAD-TPX2 variants as competitors 195 nM-25 μM, 25°C, HEPES pH 7.4, 0.1 M Mg(CH3COO)2, 100 mM NaCl, 1 mM ATP, 1 mM DTT, 0.01% P20; Ki from the equation of Wang (1995), given as KD in Table II
CK2α kinase (human) [14] = molecular target: CK2α kinase (human) (UniProt P68400); assay: ITC; itc200, 25°C, 10 mM HEPES pH 7.4, 500 mM NaCl, 0.05% P20; 50 μM titrant into 5 μM Aurora A D274N, 100 μM CK2β peptide or RAD-CK2β into 10 μM CK2α; single-site model
CK2α kinase (human) [15] = molecular target: CK2α kinase (human) (UniProt P68400); assay: SEC; analytical Superdex 75 5/150, 20 mM HEPES pH 7.5, 500 mM NaCl; single proteins and equimolar mixture; fractions checked by SDS-PAGE
CK2α kinase (human) [16] = molecular target: CK2α kinase (human) (UniProt P68400); assay: AUC; sedimentation velocity, absorbance at 280 nm, 50 000 rpm, 20°C, 20 mM HEPES pH 7.5, 500 mM NaCl; single proteins and mixtures (5 μM each CK2α and RAD-CK2β; 10 μM each Aurora A D274N and RAD-TPX2)

Sequence of Aurora A wild-type kinase domain (untagged) (human) (O14965 133-383): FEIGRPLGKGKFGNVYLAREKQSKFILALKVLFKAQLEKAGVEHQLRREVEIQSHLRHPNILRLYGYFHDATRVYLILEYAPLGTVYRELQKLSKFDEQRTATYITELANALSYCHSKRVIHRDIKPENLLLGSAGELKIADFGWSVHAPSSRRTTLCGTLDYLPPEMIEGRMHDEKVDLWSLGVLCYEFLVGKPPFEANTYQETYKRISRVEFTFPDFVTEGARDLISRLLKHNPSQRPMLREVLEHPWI
Sequence of CK2α kinase (human) (P68400 2-329): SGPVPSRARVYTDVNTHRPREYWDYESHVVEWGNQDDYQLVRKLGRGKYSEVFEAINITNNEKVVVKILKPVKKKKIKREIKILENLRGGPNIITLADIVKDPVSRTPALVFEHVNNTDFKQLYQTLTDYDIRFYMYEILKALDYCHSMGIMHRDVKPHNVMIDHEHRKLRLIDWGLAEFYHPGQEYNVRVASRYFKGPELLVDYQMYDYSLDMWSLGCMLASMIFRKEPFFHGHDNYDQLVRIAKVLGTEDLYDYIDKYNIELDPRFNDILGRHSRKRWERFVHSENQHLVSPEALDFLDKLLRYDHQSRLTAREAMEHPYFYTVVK
Sequence of CK2α kinase (P68400 2-329): as above
Sequence of Aurora A_(D274N) kinase domain (human) (O14965 122-403 D274N): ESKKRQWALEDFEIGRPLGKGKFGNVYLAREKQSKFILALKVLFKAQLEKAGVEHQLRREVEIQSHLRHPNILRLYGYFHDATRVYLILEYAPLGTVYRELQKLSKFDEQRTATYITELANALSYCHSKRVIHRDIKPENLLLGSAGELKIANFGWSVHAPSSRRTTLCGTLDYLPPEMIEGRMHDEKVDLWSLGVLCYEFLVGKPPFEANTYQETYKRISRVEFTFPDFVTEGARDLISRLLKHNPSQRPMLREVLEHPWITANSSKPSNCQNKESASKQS

Substance: cRAD-CK2β_((186–200)) display protein (from UniProt O74036 108-287; P67870 186-200; O74036 302-349)
- Kd (CK2α kinase (human) [14]): 140 nM

Substance: double His-tagged RAD-TPX2_((7–43)) F19A (from UniProt O74036 108-287; Q9ULW0 7-43; O74036 302-349)
- Kd [13]: 1770 nM

Substance: RAD-CK2β_((186–200)) display protein (as used in AUC and SEC) (from UniProt O74036 108-287; P67870 186-200; O74036 302-349)
- stoichiometry N (CK2α kinase (human) [15]): 1
- stoichiometry N (CK2α kinase (human) [16]): 1

Substance: double His-tagged RAD-TPX2_((7–43)) W34A (from UniProt O74036 108-287; Q9ULW0 7-43; O74036 302-349)
- Kd [13]: 1170 nM

Substance: double His-tagged RAD-TPX2_((7–43)) D11A (from UniProt O74036 108-287; Q9ULW0 7-43; O74036 302-349)
- Kd [13]: > 3200 nM

Substance: double His-tagged RAD-TPX2_((7–43)) F35A (from UniProt O74036 108-287; Q9ULW0 7-43; O74036 302-349)
- Kd [13]: 1110 nM

Next, values leading:

- Kd [1]: 2800 nM
- Kd [2]: 11 µM
- Kd [3]: 820 nM
- Kd [4]: 46 nM
- Kd [5]: 1100 nM
- Kd [6]: 1100 nM
- Kd [7]: 870 nM
- Kd [8]: 840 nM
Substance: Aurora A wild-type kinase domain (untagged) (domain or fragment)

- Kd [9]: 147 nM
Substance: cRAD-TPX2_((7–43)) display protein (from UniProt O74036 108-287; O74036 302-349)

- Kd [10]: 407 nM
- Kd [11]: 139 nM
- Kd [12]: 348 nM
Substance: CK2α kinase (from UniProt P68400 2-329) (enzyme)

- Kd [13]: > 3200 nM
Substance: double His-tagged RAD-TPX2_((7–43)) Y8A (from UniProt O74036 108-287; Q9ULW0 7-43; O74036 302-349)

- Kd [13]: > 3200 nM
Substance: double His-tagged RAD-TPX2_((7–43)) Y10A (from UniProt O74036 108-287; Q9ULW0 7-43; O74036 302-349)

- Kd [13]: 2 nM
Substance: double His-tagged RAD-TPX2_((7–43)), wild-type TPX2 sequence (from UniProt O74036 108-287; O74036 302-349)

- Kd (CK2α kinase (human) [14]): 138 nM
Substance: synthetic linear CK2β_((186–200)) peptide (from UniProt P67870 186-200)

- Kd [13]: 300 nM
Substance: double His-tagged RAD-TPX2_((7–43)) F16A (from UniProt O74036 108-287; Q9ULW0 7-43; O74036 302-349)
